Assay results as given in PMC5473912, “Regulation of sub-compartmental targeting and folding properties of the Prion-like protein Shadoo” (Scientific Reports, 2017).

Target: T1, Calreticulin (CRT), endogenous mouse (mouse (endogenous in GT1), UniProt P14211 18-416)
T1 construct: Calreticulin (CRT), mouse, immunoprecipitated with anti-CRT antibody; also called ER chaperone Calreticulin; source: endogenous, GT1 lysate
T1 sequence (looked up): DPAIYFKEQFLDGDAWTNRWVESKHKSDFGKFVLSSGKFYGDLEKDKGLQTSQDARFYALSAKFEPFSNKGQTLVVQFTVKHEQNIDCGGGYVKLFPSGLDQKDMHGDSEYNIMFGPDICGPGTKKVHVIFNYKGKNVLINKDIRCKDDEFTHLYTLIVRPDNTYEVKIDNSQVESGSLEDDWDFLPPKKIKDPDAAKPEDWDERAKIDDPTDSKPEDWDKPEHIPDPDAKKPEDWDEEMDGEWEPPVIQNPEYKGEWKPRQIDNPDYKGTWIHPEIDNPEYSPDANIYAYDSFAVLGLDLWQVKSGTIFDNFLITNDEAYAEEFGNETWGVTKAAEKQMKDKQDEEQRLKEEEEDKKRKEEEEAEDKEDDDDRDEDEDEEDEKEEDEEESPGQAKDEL
Assay: co-IP; Calreticulin immunoprecipitated from GT1 lysates (JS buffer, 1% TX-100, 150 mM NaCl, pH 7.5) with anti-CRT Ab and protein A-Sepharose overnight at 4 °C; Sho revealed by Western blot with SPRN-R12; cells under control conditions or cholesterol depletion (βCD 10 mM, 1 h)
Conditions: partners not purified

B1: Shadoo (Sho), mature fully glycosylated ~22 kDa isoform, endogenous mouse (natural protein, mouse (endogenous in GT1), UniProt Q8BWU1 25-122, looked up)
chain: KGGRGGARGSARGVRGGARGASRVRVRPAPRYGSSLRVAAAGAAAGAAAGVAAGLATGSGWRRTSGPGELGLEDDENGAMGGNGTDRGVYSYWAWTSG
modifications: fully N-glycosylated (complex-glycosylated)
notes: Shadoo (Sho, SPRN), mouse, the mature fully glycosylated isoform that migrates at ~22 kDa; also called mature Sho; mature glycosylated Sho; source: endogenous, GT1 lysate
fold increase in the immunocomplex upon cholesterol depletion against control: ~3 fold
